{
  "source": "patent US6096529A",
  "about": "“Recombinant α-2,3-sialyltransferases and their uses” (priority 1997, dated 2000)",
  "assay_in_all_cases": "Determination of kinetic constants with APTS-labelled acceptors",
  "assay_type_in_all_cases": "biochemical, Neisseria meningitidis",
  "key": {"[1]": {"test_system": "CC(=O)N[C@H]1[C@H](O[C@@H]([C@H](O)[C@H](CNc2cc(S(=O)(=O)O)c3ccc4c(S(=O)(=O)O)cc(S(=O)(=O)O)c5ccc2c3c54)NC(C)=O)[C@H](O)CO)O[C@H](CO)[C@@H](O[C@@H]2O[C@H](CO)[C@H](O)[C@H](O)[C@H]2O)[C@@H]1O", "conditions": "other: apparent; APTS-labelled acceptor, CMP-Neu5Ac 200 μM, room temperature", "description": "(§1) Measurement of Sialyltransferase Activity and Survey of Oligosaccharide Acceptors--FCHASE-labelled oligosaccharides were prepared as described above, while the APTS-labelled oligosaccharides were prepared by reductive amination of reducing saccharides according to the method described by Guttman et at. (Anal. Biochem233:234 (1996)) The Gal-β-APTS acceptor was derived from labelling of lactose; the Gal-α-APTS acceptor was derived from labelling of melibiose; the N-acetyllactosamine (LacNAc) acceptor was synthesized by APTS labelling of chitobiose, followed by enzymatic modification with bovine β-Galactosyl transferase to produce the LacNAc moiety-, the Gal-α-1.4-Gal-β acceptor was enzymatically synthesized from β-Gal-APTS with the α-1,4-galactosyltransferase from N. meningitidis. All of the reductive amination products were purified by gel permeation chromatography on Toyopearl HW4OF (Sigma-Aldrich), 1.5 cm×15 cm column, using water as the eluant. It should be mentioned that all of these molecules have the terminal reducing sugar ring opened in the process of labelling. APTS-saccharides were quantitated by measuring the A455, and using an extinction coefficient of 17160 M^-1 cm^-1 . The TMR-labelled oligosaccharides were prepared as described by Zhao et al. (1994) Glycobiology 4:239-242. For the TMR labelled acceptors we used an extinction coefficient of 80,000 M^-1 cm^-1 for quantitation. The sialyltransferase activity was routinely measured using 0.5 mM FCHASE-N-acetyllactosamine as the acceptor and the assay conditions as described above. For measurement of Km, and kcat values, assays were performed with the APTS labelled saccharides at room temperature. Assays were monitored so that for all acceptor concentrations, no more than 10% conversion to product occurred. The ranges of acceptor and donor concentrations were determined empirically, then a range spanning 0.2Km, up to 5Km, was used to obtain the values. Data were examined using the Grafit™3.0 software package (Erithacus Software, London, UK).\n(§2) The reaction mixtures from the FCHASE- and APTS-labelled acceptors were analyzed by capillary electrophoresis performed with a Beckman instruments (Fullerton, Calif.) P/ACE 5510 equipped with a 3 mW Argon-ion laser induced fluorescence detector, λ excitation=488 nm λ emission=520 nm. The Capillary was of bare silica 75 μ X 57 cm, with the detector at 50 cm. The capillary was conditioned before each run by washing with 0.2 M NaOH for 2 min., water for 2 min., and either 20 mM sodium phosphate buffer, pH 7.4 or sodium tetraborate, pH 9.3, 2 min. Samples were introduced by pressure injection for 2-5 seconds, and the separation was performed at 18 kV, 75 μA. Peak integration was performed with the Beckman PACE-Station software (version 1)."}, "[2]": {"test_system": "CC(=O)N[C@H]1[C@H](O[C@H]2[C@@H](O)[C@@H](CO)O[C@@H](O[C@@H]([C@H](O)[C@@H](O)CNc3cc(S(=O)(=O)O)c4ccc5c(S(=O)(=O)O)cc(S(=O)(=O)O)c6ccc3c4c65)[C@H](O)CO)[C@@H]2O)O[C@H](CO)[C@@H](O)[C@@H]1O[C@@H]1O[C@H](CO)[C@H](O)[C@H](O)[C@H]1O", "conditions": "other: apparent; APTS-labelled acceptor, CMP-Neu5Ac 200 μM, room temperature", "description": "as §1, §2"}, "[3]": {"test_system": "CC(=O)N[C@H]1[C@H](O[C@H]2[C@@H](O)[C@@H](CO)O[C@@H](O[C@@H]([C@H](O)[C@@H](O)CNc3cc(S(=O)(=O)O)c4ccc5c(S(=O)(=O)O)cc(S(=O)(=O)O)c6ccc3c4c65)[C@H](O)CO)[C@@H]2O)O[C@H](CO)[C@@H](O[C@@H]2O[C@H](CO)[C@H](O)[C@H](O)[C@H]2O)[C@@H]1O", "conditions": "other: apparent; APTS-labelled acceptor, CMP-Neu5Ac 200 μM, room temperature", "description": "as §1, §2"}, "[4]": {"test_system": "CC(=O)N[C@H]1[C@H]([C@H](O)[C@H](O)CO)O[C@](OP(=O)(O)OC[C@H]2O[C@@H](n3ccc(N)nc3=O)[C@H](O)[C@@H]2O)(C(=O)O)C[C@@H]1O", "conditions": "other: acceptor LacNAc-APTS (0.8 mM) or lacto-N-neotetraose-APTS (0.2 mM)", "description": "as §1, §2"}, "[5]": {"test_system": "O=S(=O)(O)c1cc(NC[C@H](O)[C@@H](O)[C@H](O[C@@H]2O[C@H](CO)[C@H](O)[C@H](O)[C@H]2O)[C@H](O)CO)c2ccc3c(S(=O)(=O)O)cc(S(=O)(=O)O)c4ccc1c2c34", "conditions": "other: apparent; APTS-labelled acceptor, CMP-Neu5Ac 200 μM, room temperature", "description": "as §1, §2"}, "[6]": {"test_system": "O=S(=O)(O)c1cc(NC[C@H](O)[C@@H](O)[C@H](O[C@@H]2O[C@H](CO)[C@H](O[C@H]3O[C@H](CO)[C@H](O)[C@H](O)[C@H]3O)[C@H](O)[C@H]2O)[C@H](O)CO)c2ccc3c(S(=O)(=O)O)cc(S(=O)(=O)O)c4ccc1c2c34", "conditions": "other: apparent; APTS-labelled acceptor, CMP-Neu5Ac 200 μM, room temperature", "description": "as §1, §2"}},
  "data": [
    {"substance": "purified recombinant α-2,3-sialyltransferase (Neisseria meningitidis MC58)", "values": [
      {"measurement": "Km", "setting": "[1]", "result": 67, "unit": "µM"},
      {"measurement": "kcat", "setting": "[1]", "result": 0.118, "unit": "s⁻¹"},
      {"measurement": "Km", "setting": "[2]", "result": 113, "unit": "µM"},
      {"measurement": "kcat", "setting": "[2]", "result": 0.0383, "unit": "s⁻¹"},
      {"measurement": "Km", "setting": "[3]", "result": 42, "unit": "µM"},
      {"measurement": "Km", "setting": "[4]", "result": 20, "unit": "µM"},
      {"measurement": "Km", "setting": "[5]", "result": 168, "unit": "µM"},
      {"measurement": "kcat", "setting": "[5]", "result": 0.0633, "unit": "s⁻¹"},
      {"measurement": "Km", "setting": "[6]", "result": 139, "unit": "µM"},
      {"measurement": "kcat", "setting": "[6]", "result": 0.013, "unit": "s⁻¹"}
    ]}
  ]
}
